{"source": "paper PMC10342119", "about": "“ABF1 Positively Regulates Rice Chilling Tolerance via Inducing Trehalose Biosynthesis” (International Journal of Molecular Sciences, 2023)", "binders": {"B1": {"name": "GST-ABF1 (natural protein, rice (Oryza sativa L.), UniProt Q0JHF1 1-266, looked up)", "chain": "MMASRVMASSSPSHTASDLARFAAGRGGGGSAGLGSMNVEEILRGIYADMPTPALPLVGGDRPMSPLPAPDVAAAPRTAEEVWKEITGAGVAAAAGGVVPPAAAAAAAPAVVAGAGAGTGAEMTLEDFLAREGAVKEDEAVVTDPSAAKGQVVMGFLNGAEVTGGVTGGRSRKRHLMDPMDRAAMQRQKRMIKNRESAARSRERKQAYIAELESLVTQLEEENAKMFKEQEEQHQKRLKELKEMVVPVIIRKTSARDLRRTNSMEW", "notes": "ABF1 (bZIP12), bZIP transcription factor of rice; the CDS was fused into pGEX-4T-1; also called bZIP12; source: E. coli Transetta (DE3), purified (GST-Sefinose Kit); not shown: GST, N-terminal, kept"}, "B2": {"name": "TPS2 promoter probe (P3, G-box) (dsDNA)", "DNA 1": "CAGACCTGACGTCAGACGACGATTAGCCACGTGGCACACAGTGCACCCGACACGACGAA", "DNA 2": "TTCGTCGTGTCGGGTGCACTGTGTGCCACGTGGCTAATCGTCGTCTGACGTCAGGTCTG"}}, "key": {"[1]": {"molecular_target": "T1, His-SAPK10 (rice (Oryza sativa L.), UniProt Q75H77 1-362)", "T1 construct": "SAPK10, SnRK2-type Ser/Thr protein kinase of rice; the CDS was fused into pET-28a; source: E. coli Transetta (DE3), purified (6x His-Tagged Protein Purification Kit); not shown: His, N-terminal, kept", "T1 sequence (looked up)": "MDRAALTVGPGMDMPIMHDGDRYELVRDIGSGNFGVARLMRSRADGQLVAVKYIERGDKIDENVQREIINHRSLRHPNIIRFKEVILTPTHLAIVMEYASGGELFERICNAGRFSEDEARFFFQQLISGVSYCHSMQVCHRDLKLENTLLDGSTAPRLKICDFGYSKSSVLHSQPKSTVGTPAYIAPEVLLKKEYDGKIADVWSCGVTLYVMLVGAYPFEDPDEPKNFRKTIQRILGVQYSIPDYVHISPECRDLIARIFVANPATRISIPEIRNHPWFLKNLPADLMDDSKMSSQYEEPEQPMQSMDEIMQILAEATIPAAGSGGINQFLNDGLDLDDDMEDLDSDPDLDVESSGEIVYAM", "test": "pull-down; GST pull-down on glutathione magnetic agarose beads; 50 mM Tris-HCl pH 7.5, 5% glycerol, 1 mM EDTA, 1 mM DTT, 1 mM PMSF, 0.01% Nonidet P-40, 150 mM KCl; 4 °C for 2 h; blots with anti-His and anti-GST", "conditions": "both partners purified"}, "[2]": {"molecular_target": "T2, GST-ABF1 (Oryza sativa L. ssp. japonica cv …, UniProt Q0JHF1 1-266)", "T2 sequence": "B1 chain", "test": "EMSA; binding lost with unlabeled probe; EMSA/gel-shift binding buffer (composition, pH and temperature not stated); 20 fmol biotin-labeled probe; 6% acrylamide gel", "conditions": "protein: recombinant; tags: N-terminal GST (pGEX-4T-1); chain copies: 2; label: biotin; blunt"}}}
{"binder": "B1", "values": [{"measurement": "binding result", "setting": "[1]", "value": "binds"}]}
{"binder": "B2", "values": [{"measurement": "binding result", "setting": "[2]", "value": "binds"}]}
